The source of these data is patent US20020164620A1, “Method for identifying compounds modulating sister chromatid separation” (Boehringer Ingelheim International GmbH, priority 2001, published 2002).

The subject of assay [1] is human separase. The assay is described as follows: SCC1 in vitro cleavage assay. In kind it is biochemical. To be noted: substance added to mitotically activated separase immunoprecipitates before SCC1-myc reaction mix. On the procedure: (§1) 30 microliter beads were incubated with 40 μg bacterially expressed wildtype securin, destruction box deleted form of securin (Gmachl et al., 2000) or BSA diluted in XB+1 mM DTT for 40 min at RT. Subsequently the beads were washed with XB+1 mM DTT and with TBS+0.5 M NaCl+1 mM DTT+0.5% TWEEN20, followed by one wash with XB+1 mM DTT. To control the rebinding of securin an aliquot of 5 μl was taken per assay and subsequently analysed by immunoblotting with antibodies against separase and securin.
The beads were used for the SCC1 in vitro cleavage assay: 20 μl beads were mixed with 30 μl of the following SCC1 in vitro translation mix (SCC1 myc IVT+1 μl PLK-GST+0.3 μl […], 0.3 μl 100 mM ATP, 0.12 μl 250 mM EGTA, 13.78 μl XB+1 mM DTT) and incubated at 22° C. and 1200 rpm. 5 μl were taken per time point, the reaction was stopped by addition of SDS loading buffer. Samples were analyzed by immunoblotting with mouse monoclonal antibodies against myc (9E10).
(§2) B. Separase immunoprecipitates were incubated with 100 μM Biotin-SVEQGR-amk or with DMSO prior mitotic activation. Incubation for 10 minutes, 22° C. and 1000 rpm. After washing twice in XB+1 mM DTT the activation was performed in mitotic Xenopus egg extracts.
Interphase Xenopus egg extracts were driven into mitosis in the presence of 1 mM Biotin-SVEQGR-amk or DMSO. […]
Target sequence in this assay (Q14674 1536-2120 limits assumed): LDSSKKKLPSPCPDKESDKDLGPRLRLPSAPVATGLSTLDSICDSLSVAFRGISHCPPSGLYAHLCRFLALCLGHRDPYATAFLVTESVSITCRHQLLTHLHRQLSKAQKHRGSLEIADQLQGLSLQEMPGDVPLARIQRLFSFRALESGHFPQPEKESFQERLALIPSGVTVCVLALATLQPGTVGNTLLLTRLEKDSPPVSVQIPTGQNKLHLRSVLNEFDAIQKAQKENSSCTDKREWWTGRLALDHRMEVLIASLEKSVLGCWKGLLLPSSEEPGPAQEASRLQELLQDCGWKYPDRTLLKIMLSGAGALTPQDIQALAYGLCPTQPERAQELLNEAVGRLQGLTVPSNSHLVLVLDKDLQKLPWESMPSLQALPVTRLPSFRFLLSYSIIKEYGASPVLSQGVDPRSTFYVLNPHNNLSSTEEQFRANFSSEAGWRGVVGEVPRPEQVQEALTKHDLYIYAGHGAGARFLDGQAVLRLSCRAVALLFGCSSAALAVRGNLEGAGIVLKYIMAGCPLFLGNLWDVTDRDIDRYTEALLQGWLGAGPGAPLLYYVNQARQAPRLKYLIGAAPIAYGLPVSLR

Assay [2] has as its system human separase. Put plainly: Covalent labelling of separase forms by biotin peptide (avidin blot). In kind it is binding. To be noted: recombinant securin bound to cleaved active separase, then human peptide inhibitor (FIG. 4D). The method, then: as §2
Interphase Xenopus egg extracts were driven into mitosis in the presence of 1 mM Biotin-SVEQGR-amk or DMSO. Those mitotic Xenopus egg extracts were used to activate a batch of separase immunoprecipitates.
Biotin labeled peptides were detected via immunoblotting according to Faleiro et al., 1997.
C. […] After 10 min incubation at 22° C. and 1250 rpm beads were again washed and analyzed by immunoblotting.
FIG. 4B: Separase IPs (see A) were either preincubated with Biotin-SVEQGR-amk (preinc. with inh. peptide) or with DMSO (preinc. with DMSO), subsequently washed and aliquots were taken. […] All samples were analysed by immunoblotting with avidin.
FIG. 4D: Activated separase immunoprecipitates bound by antibodies against the C-terminus of separase to beads were first incubated with recombinant securin or, for control, with recombinant truncated cyclinB. […] Thereafter, the immunoprecipitates were again washed and analyzed by immunoblotting.
Target sequence in this assay (Q14674 1536-2120 limits assumed): as above

For assay [3], the system named is human separase. Put plainly: Rebinding of recombinant securin to mitotically activated separase immunoprecipitates. In kind it is binding. The following applies: separase activated in mitotic Xenopus extracts, mostly cleaved form. The method, then:
as §1
Target sequence in this assay (Q14674 1-1486 limits assumed): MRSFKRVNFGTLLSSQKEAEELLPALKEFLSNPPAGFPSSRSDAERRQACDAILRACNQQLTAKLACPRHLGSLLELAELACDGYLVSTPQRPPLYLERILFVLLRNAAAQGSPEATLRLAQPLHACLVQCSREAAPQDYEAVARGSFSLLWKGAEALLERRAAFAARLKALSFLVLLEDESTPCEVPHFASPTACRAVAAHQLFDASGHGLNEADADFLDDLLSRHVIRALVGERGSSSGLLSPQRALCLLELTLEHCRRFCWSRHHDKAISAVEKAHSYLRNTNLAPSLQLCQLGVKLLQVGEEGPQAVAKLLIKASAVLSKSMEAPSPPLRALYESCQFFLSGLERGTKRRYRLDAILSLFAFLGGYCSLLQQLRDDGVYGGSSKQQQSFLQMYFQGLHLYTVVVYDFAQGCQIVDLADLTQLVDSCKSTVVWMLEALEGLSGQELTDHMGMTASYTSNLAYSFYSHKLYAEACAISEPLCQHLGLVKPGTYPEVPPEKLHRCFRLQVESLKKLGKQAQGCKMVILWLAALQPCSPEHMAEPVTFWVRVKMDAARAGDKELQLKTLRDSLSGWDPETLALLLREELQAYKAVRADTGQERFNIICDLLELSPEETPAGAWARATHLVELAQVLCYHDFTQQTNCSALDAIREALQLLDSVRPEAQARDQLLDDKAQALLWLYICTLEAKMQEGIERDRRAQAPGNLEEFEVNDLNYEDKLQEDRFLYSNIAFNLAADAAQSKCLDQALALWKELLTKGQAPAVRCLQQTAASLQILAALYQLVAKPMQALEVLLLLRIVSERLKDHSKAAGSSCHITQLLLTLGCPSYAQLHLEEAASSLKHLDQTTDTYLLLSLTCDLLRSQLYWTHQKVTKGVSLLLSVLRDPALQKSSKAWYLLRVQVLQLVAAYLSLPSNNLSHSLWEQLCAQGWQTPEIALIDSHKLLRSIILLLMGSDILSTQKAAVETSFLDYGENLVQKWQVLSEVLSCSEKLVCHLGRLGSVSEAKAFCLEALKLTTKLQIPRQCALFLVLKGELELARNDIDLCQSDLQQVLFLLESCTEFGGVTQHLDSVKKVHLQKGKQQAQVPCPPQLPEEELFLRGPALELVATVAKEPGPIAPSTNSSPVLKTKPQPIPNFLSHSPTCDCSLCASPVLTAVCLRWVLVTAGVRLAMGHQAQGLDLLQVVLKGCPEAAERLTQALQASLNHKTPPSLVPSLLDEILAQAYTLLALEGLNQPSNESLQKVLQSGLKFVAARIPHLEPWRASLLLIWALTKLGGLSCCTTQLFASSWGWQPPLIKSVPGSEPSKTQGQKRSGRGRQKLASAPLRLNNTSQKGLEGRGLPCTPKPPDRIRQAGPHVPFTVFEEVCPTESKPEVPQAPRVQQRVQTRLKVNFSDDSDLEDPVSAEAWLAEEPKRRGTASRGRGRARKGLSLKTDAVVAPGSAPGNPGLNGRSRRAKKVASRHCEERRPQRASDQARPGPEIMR
Target sequence in this assay (Q14674 1536-2120 limits assumed): as the sequence (Q14674 1536-2120 limits assumed) above
FIG. 1A: Separase immunoprecipitates (separase IP) obtained from Nocodazole arrested HeLa cells and bound by antibodies against the C-terminus of separase coupled to beads were activated in mitotic Xenopus egg extracts (separase IP^mitotic). Mitotically activated separase immunoprecipitates were either incubated in buffer, wildtype securin, destruction box deleted securin or in BSA. Aliquots were taken and analysed by immunoblotting with antibodies against separase and securin.

B1: WT-securin: human securin expressed in E. coli and purified, the wildtype protein (protein)
chain: MATLIYVDKENGEPGTRVVAKDGLKLGSGPSIKALDGRSQVSTPRFGKTFDAPPALPKATRKALGTVNRATEKSVKTKGPLKQKQPSFSAKKMTEKTVKAKSSVPASDDAYPEIEKFFPFNPLDFESFDLPEEHQIAHLPLSGVPLMILDEERELEKLFQLGPPSPVKMPSPPWESNLLQSPSSILSTLDVELPPVCCDIDI
Take B1: the “SCC1 cleavage by separase” value in assay [1] was “no cleavage of SCC1 was detected”. The “binding of peptide inhibitors to the active site of separase” value in assay [2] is “prevented the binding of peptide inhibitors to the active site of separase”. For the same molecule, in assay [3], the “binding of securin to separase” value was “able to bind to separase”.
